Measurements published in patent publication US20040131591A1 (OXFORD BIOMEDICA UK, published 2004).

Biological target: T1, human 5T4 (oncofetal glycoprotein 5T4, trophoblast cell surface antigen) (human, UniProt Q13641 32-420)
T1 construct: whole, on cells; also called h5T4; 5T4 antigen
T1 sequence (looked up): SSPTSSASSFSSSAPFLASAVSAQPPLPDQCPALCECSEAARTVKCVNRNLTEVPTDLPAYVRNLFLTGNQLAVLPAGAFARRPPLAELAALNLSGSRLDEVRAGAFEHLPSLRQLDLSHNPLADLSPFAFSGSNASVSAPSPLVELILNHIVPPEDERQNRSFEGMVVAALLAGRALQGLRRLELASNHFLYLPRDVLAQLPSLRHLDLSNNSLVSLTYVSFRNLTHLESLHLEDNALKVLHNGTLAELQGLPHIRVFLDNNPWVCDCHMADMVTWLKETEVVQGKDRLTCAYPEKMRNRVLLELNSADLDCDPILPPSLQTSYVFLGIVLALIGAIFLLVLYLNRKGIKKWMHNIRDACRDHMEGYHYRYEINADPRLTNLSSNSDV
Assay: FACS: A9-h5T4 cells with B7.1/ScFv supernatant, then CTLA4-Ig, detected with FITC anti-mouse Ig
Procedure: After washing cells were incubated with CTLA4-Ig (Ancell) for 1 hour. After washing, bound CTLA4-Ig was detected using an FITC conjugated anti-mouse Ig (Dako).

B1: B7-1/ScFv fusion protein (leader sequence and extracellular domain of murine B7.1 fused via a flexible linker to the VH and VL of the murine Mab 5T4 specific … (other)
chain: VDEQLSKSVKDKVLLPCRYNSPHEDESEDRIYWQKHDKVVLSVIAGKLKVWPEYKNRTLYDNTTYSLIILGLVLSDRGTYSCVVQKKERGTYEVKHLALVKLSIKADFSTPNITESGNPSADTKRITCFASGGFPKPRFSWLENGRELPGINTTISQDPESELYTISSQLDFNTTRNHTIKCLIKYGDAHVSEDFTWEKPPEDPPDSKPGGGGSGGGGSGGGGTSEVQLQQSGPDLVKPGASVKISCKASGYSFTGYYMHWVKQSHGKSLEWIGRINPNNGVTLYNQKFKDKAILTVDKSSTTAYMELRSLTSEDSAVYYCARSTMITNYVMDYWGQVTSVTVSSGGGGSGGGGTGGGGSSIVMTQTPTFLLVSAGDRVTITCKASQSVSNDVAWYQQKPGQSPTLLISYTSSRYAGVPDRFIGSGYGTDFTFTISTLQAEDLAVYFCQQDYNSPPTFGGGTKLEIKR
notes: Tested as about 30-fold concentrated supernatant of transiently transfected 293T cells; also called B7/ScFv; OBM 233
B1: binds.
